# Test: soluble on expression in E. coli; label from the status in PepcDB or PDB records
row,Sequence,soluble on expression in E. coli
1,MEGMDHGSHSMPMGASSDAPAQSRTPIPPVTDADRAAVYTSHSGHQVHDSAINSYFVADKLEWQDANDGSALAWDLSGWIGGDIDRLLLRSEGERTNGKTEEAEVQALWGHAVSSSWDVVAGARQDFKPGAPQTWAAFGLQGQAISDLDVEATAFIGDAGQTAARLEADYDLLLTNDLILQPTGELNFYGKNDPQRGNGSGLSTSEFGLRLRYEITPQFAPYVGVTWNRSYGKTADYAREDDEDVAQARLVVGLRLWFLEHHHHHH,not soluble
2,MTEPVHPIADLTDSLLGWASQTELELAQRLAGGGLVIAAGLSDDELERIERLYGIFLTRQLLAGADFAALIGVSPALTLTTLVARARRVVEIDDFVSEFLGGLGLATDESSVIDIDEATAAIMGAIPQSLARFELLGAQEATDALSAIVSLCTQAGIVNNEVPALLEYLDAVNAEGTVSSEDLVAAIAQQENLPLLATALQIAPAAITELIDGVAAVRQFAVDHHDSWFDRSREHLTPLLPRPIEFSVVSELRERPVGTVDREASVGVASREMRPRILFDADRSKVYLRLPEQRLPIADDGTRGEITWRVSIEGTTKIYHTGSPWGDTSGFAESLDVHIERPVRELTVQDETNEITWTVPVLAHDDPALVFSSRGTNVTDKVALHHQSLIVVTPQDVTLTDVVSGDDIVADSETAVEGWDKWVARYLDVSHVTSLSAVEPGKNANMETLRSIDPRQRVRFLAPSEPVDFLKTTGGLPVHSESLIAEFPPTPSGRTE,not soluble
3,MAYAYLFKYIIIGDTGVGKSCLLLQFTDKRFQPVHDLTIGVEFGARMITIDGKQIKLQIWDTAGQESFRSITRSYYRGAAGALLVYDITRRDTFNHLTTWLEDARQHSNSNMVIMLIGNKSDLESRREVKKEEGEAFAREHGLIFMETSAKTASNVEEAFINTAKEIYEKIQEGVFDINNEANGIKIGPQHAATNASHGSNQGGQQAGGGCC,soluble
4,MSETGTRISPLFSHRRWKLQVLDLQDVCENFWMVWSEAMARGCFLNAKRNKKPVQDCPRMRGRQPLTVFVELWLKNRTLDEHLTCLLLWVKQRKDLLHLCCKKLKILGMPFRNIRSILKMVNLDCIQEVEVNCKWVLPILTQFTPYLGHMRNLQKLVLSHMDVSRYVSPEQKKEIVTQFTTQFLKLHCLQKLYMNSVSFLEGHLDQLLSCLKTSLKVLTITNCVLLESDLKHLSQCPSISQLKTLDLSGIRLTNYSLVPLQILLEKVAATLEYLDLDDCGIIDSQVNAILPALSRCFELNTFSFCGNPISMATLENLLSHTIILKNLCLELYPAPRESYGADGTLCWSRFTQIRAELMKRVRDLRHPKRILFGTDYCPDCGNRSFYDLEADQYCC,not soluble
5,MVAPGKKFTLRHIFKNVTKWKTGEIFYSPDEEHFNVPWQMCIHRENGNMCVILCCLKVEEDRVPWKINFEYQLKIVNISGMSIVKAGNKICTEKRRFVRRQFISRNTLKSGYLVDDIITVEATVKITKVSKKQLRSFDKSNKKFSDVILAIEDEKFYVLKKFLASHSTYFKTLLLGKFEEAERQEVKLQDIDSTDFQNLMEVLYGESAIDDGTIKGILELADMYDMPFPIRKCEEFLIDSSEKSIKEKLKIAKQYKMENLKNSCLSKVNTVRDIKAAMTGDPTEMDLSVLAALLGKSLALH,not soluble
6,SLQKLQAQGVHHITLVGAGRQTSIDFWEGVLGMPFIFEQPNLDKASESHLYFDPGDGRLITVFTDESRTPQKRRTPTDPGCVHHIAFAVSRVTFLQAVARLDERGIKHSGVKDRGFMDSIYFEDPLGLLIELASYRFEPPAGFTHADVLMQAHRLRVGRGDYNIAEVHLADAIQVLVESSREG,soluble
7,GPGSMGVVLRELRMRQESATFLLAAVSVNPLLRCAWEDLACLVSRETQLAELDAALDGLEPFFMVDIFAAEVRGLLGVTPVSSARLRIAAAAASAPSDGFEPSPPCSAPPEGHAATTTATAAKAGTRTSPLLPPPRTNAGATPPIPAAALSNAWECFSLLFPDTPFCLSQLAHFYYHQRNRLDRAEALYQRIRALDPHYLAILYDYSNVLYTKRDRLGLSSLAQSVYQADAFRAETNFAVGNYYVLLGQHDRAALHFHRATAIDPQCAEAWLLLGHAYVEVKNTTAAVEAYRTAVELNERDYRGWYNLGQIYELLEAYHHALYYYWHTTSLRPADPGMWVAVANCLEHDGRIAESIACLERAETYDSSSSPSYPAYVRRIATHHIANSSYTRACVYLEKLAQSPAASTEDLLLALPFIVQHYVQRARSSVEGFARSSSYDTVLFSPGANNVSLMSSPASGAVAAGRTALHHARAAAALQHLNKAEEHLSTMAELVMPSGHNGAGNEEAAQTPATSAAAGESEQGGAENTAPQRAAEDAPHRRRTRQPRSGAAANASVSASASAALAAVAASTAPSAGDVPPVAFVRSRHQEIGMLRAQAMHLLQIGAGASGSTIPVAASASASVATQPSSSSSQQQQQQQQQRHQQHRNPFVSQLLGRYQ,not soluble

# From the DeepSol protein solubility set
